Experimental data as given in patent US12365732 (23ANDME, dated 2025).
Positions count from the first letter of the chain named. Numbers in names are those of the source.

T1: hu-CD96 isoform 2 on CHO cells (human, UniProt P40200 22-585)
T1 construct: also called CHO-CD96 (isoform 2); CD96-CHOs
T1 sequence: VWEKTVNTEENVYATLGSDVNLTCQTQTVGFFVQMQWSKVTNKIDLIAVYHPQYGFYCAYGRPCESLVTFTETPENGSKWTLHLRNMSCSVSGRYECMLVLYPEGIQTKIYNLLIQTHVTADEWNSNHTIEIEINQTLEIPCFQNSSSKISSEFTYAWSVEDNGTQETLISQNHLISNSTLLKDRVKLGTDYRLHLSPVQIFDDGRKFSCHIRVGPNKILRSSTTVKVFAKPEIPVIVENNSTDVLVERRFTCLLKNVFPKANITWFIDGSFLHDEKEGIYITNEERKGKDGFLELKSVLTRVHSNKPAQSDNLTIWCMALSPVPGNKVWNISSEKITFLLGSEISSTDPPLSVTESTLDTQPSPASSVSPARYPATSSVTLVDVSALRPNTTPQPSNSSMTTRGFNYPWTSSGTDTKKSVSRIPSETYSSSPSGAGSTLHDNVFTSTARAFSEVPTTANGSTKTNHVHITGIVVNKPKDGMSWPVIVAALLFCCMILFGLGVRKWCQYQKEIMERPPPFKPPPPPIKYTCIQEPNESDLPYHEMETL

T2: cy-CD96 (soluble, extracellular domain) (cynomolgus monkey, UniProt P40200 22-516 (human entry), biotinylated in Octet and blocking ELISA)
T2 construct: the assays name only cy-CD96; also called biotinylated cy-CD96
T2 chain: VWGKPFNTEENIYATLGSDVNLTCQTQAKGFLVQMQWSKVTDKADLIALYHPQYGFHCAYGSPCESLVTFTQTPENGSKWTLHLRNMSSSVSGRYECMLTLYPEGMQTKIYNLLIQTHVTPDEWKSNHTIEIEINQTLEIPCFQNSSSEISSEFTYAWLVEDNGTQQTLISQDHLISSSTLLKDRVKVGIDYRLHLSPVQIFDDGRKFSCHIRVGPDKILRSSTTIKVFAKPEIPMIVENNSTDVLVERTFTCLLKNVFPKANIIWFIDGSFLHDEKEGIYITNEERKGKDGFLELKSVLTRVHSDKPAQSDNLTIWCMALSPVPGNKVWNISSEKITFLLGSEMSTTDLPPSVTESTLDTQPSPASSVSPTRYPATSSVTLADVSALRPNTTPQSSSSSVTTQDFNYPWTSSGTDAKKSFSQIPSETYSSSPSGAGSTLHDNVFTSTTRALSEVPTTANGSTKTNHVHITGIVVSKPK

B1: h10G1 IgG (humanized 10G1) (antibody, V domains shown)
VH: EIQLVQSGSELKKPGASVKVSCKASGYPFTTYGMSWVRQAPGQGLEWMGWINTDSGVPTYADDFKGRFVFSLDTSVSTAYLQISSLKAEDTAVYFCARNIYYGWGNFDYWGQGTLVTVSS
VL: EIVMTQSPDFQSVTPKEKVTITCRASQDIYRNLHWYQQKPDQTPKLLIKHASDSISGIPSRFSGSGSGTDFTLTINSLEAEDAAAYYCLQGYSMPYTFGGGTKVEIKG
notes: human IgG1 N297G
B2: mAb1.v7.NGS9 IgG (antibody, V domains shown)
VH: EVQLVQSGAEVKKPGASVKVSCKASGFTFTNNFMHWVRQAPGQGLEWIGMIHANSGITNINEKFKNRVTMTTDTSTSTAYMELRSLRSEDTAVYYCRSDGVYEGYFDYWGQGTLVTVSS
VL: DIQLTQSPSSLSASVGDRVTITCKASQNVGTAIVWYQQKPGKAPKVLIYSASTRYTGVPSRFSGSGSGTDFTLTISSLQPEDFATYYCQQYSSSPLTFGQGTKVEIKG
notes: human IgG1 N297G
B3: mAb1.v7.NGS10 IgG (antibody, V domains shown)
VH: B2 VH with M50F, V101I
VL: B2 VL
notes: human IgG1 N297G
B4: mAb1.v7.NGS11 IgG (antibody, V domains shown)
VH: B2 VH with M50F
VL: B2 VL
notes: human IgG1 N297G
B5: mAb1.v7.2 Fab (Fab, V domains shown)
VH: B2 VH with F33W, M34R, A53F
VL: DIQLTQSPSSLSASVGDRVTITCKASQNVGTAIVWYQQKPGKAPKVLIYSASTRYTGVPSRFSGSGSGTDFTLTISSLQPEDFATYYCQQYSSSPLTFGQGTKVEIK
notes: also called M34R/P52aF/T97V
B6: mAb1.v7.48 Fab (Fab, V domains shown)
VH: B2 VH with N32R, F33W, A53H
VL: B5 VL
notes: also called N32R/P52aH/T97V
B7: mAb1.v7.70 Fab (Fab, V domains shown)
VH: B2 VH with N32R, F33W
VL: B5 VL
notes: also called N32R/P52aA/T97V
B8: mAb1.v7.16 Fab (Fab, V domains shown)
VH: B2 VH with F33W, M34R, A53P
VL: B5 VL
notes: also called M34R/T97V
B9: mAb1.v7.9 Fab (Fab, V domains shown)
VH: B2 VH with F33W, M34R, A53M
VL: B5 VL
notes: also called M34R/P52aM/T97V

These binders were tested against T1, hu-CD96 isoform 2 on CHO cells (assay: FACS, CD155-Fc-FLAG 10 nM, Ab 20 nM).
Method: (§1) CHO cells stably expressing isoform 2 of hu-CD96 (Origene, catalog #RC221005) were incubated with anti-CD96 antibodies for 20 minutes at 4° C. The cells were washed, and then incubated with 10 nM human CD155-Fc-FLAG for 30 minutes at 4° C. Cells were washed, and then human CD155-Fc-FLAG binding was detected by incubation with anti-FLAG-APC (Columbia Biosciences, catalog #D3-1718-1MG) for 20 minutes at 4° C. Cell binding was analyzed by flow cytometry with a CytoFLEX (Beckman Coulter). CD155 binding is represented as median fluorescence intensity (MedFI).
(§2) As shown in Table 20 (below), the anti-CD96 antibodies, mAb1.v7.NGS8, mAb1.v7.NGS9, mAb1.v7.NGS10, mAb1.v7.NGS11, and h10G1 inhibited soluble hu-CD155 binding to CD96-expressing CHO cells dose-dependently and potently. The antibody NK92.39 (Fuchs et al., 2004; Biolegend catalog #338405) inhibited receptor binding similarly.

In order of falling “CD155-Fc binding (MedFI)” value:
1. B3  4940 MedFI
2. B1  4860 MedFI
3. B4  4460 MedFI
4. B2  4260 MedFI

Molecular target: T2, cy-CD96 (soluble, extracellular domain)
Test: BLI (Octet), biotin-CD96 on SA, Fab analyte
Outline: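 Biotinylated hu-CD96 or cy-CD96 at 10 µg/mL loaded on streptavidin sensors in PBS with 0.01% Tween-20 at 30° C; Fab analytes in three-fold dilutions from 1 µM, association 200-300 s, dissociation 1000 s. Reference-subtracted traces (minimum four concentrations) globally fitted to a 1:1 model for K_D.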

In order of falling Kd:
1. B9  129 nM
2. B8  97.9 nM
3. B6  68 nM
4. B7  52.6 nM
5. B5  39.1 nM

These binders were tested against T1, hu-CD96 isoform 2 on CHO cells (assay: FACS, CD155-Fc-FLAG 10 nM, Ab 0.16 nM).
Method: as §1, §2

In order of rising “CD155-Fc binding (MedFI)” value:
1. B1  21200 MedFI
2. B4  51900 MedFI
3. B3  54100 MedFI
4. B2  54600 MedFI

Each binder was assayed against T1, hu-CD96 isoform 2 on CHO cells (assay: FACS, CD155-Fc-FLAG 10 nM, Ab 4 nM).
Method: as §1, §2

In order of rising “CD155-Fc binding (MedFI)” value:
1. B1  4860 MedFI
2. B4  4860 MedFI
3. B3  4940 MedFI
4. B2  6100 MedFI
